Publication PMC9482650, “Quantitative fragmentomics allow affinity mapping of interactomes” (Nature Communications, 2022)

Experiments:
Assay in all cases: holdup assay
Set-up in all cases: key: below the threshold = too weak to quantify, mostly under pKd 3.1 to 4
NHERF4_4, Q86UT5 = target: NHERF4_4, Q86UT5
PDZD2_2, O15018 = target: T1, PDZD2_2, O15018
T1 sequence (O15018 329-429, limits assumed, looked up): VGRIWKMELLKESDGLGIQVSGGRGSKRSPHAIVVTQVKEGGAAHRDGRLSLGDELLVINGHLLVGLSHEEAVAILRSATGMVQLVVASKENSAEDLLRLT

DFNB31_1, Q9P202 = target: T2, DFNB31_1, Q9P202
T2 sequence (Q9P202 135-233, limits assumed, looked up): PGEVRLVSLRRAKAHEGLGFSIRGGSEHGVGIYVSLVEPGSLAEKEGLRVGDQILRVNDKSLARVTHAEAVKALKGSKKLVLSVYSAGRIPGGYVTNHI

DLG4_2, P78352 = target: DLG4_2, P78352
DLG4_2, P78352, sequence (P78352 155-259): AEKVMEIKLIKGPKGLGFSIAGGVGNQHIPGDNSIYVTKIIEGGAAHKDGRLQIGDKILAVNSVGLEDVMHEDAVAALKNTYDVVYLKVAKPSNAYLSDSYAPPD

MAGI3_2, Q5TCQ9 = target: MAGI3_2, Q5TCQ9
MAGI3_2, Q5TCQ9, sequence (Q5TCQ9 398-503): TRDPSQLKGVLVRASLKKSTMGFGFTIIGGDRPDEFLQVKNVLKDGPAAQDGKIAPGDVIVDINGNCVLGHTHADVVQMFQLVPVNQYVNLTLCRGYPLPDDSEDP

LNX1_2, Q8TBB1 = target: LNX1_2, Q8TBB1
LNX1_2, Q8TBB1, sequence (Q8TBB1 371-470): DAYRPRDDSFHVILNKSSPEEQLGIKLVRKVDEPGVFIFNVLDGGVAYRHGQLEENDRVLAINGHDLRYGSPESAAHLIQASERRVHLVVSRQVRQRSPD

PTPN3, P26045 = target: PTPN3, P26045
PTPN3, P26045, sequence (P26045 505-587): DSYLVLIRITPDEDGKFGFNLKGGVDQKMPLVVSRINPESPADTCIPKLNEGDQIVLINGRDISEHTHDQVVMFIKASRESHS

IL16_4, Q14005 = target: IL16_4, Q14005
IL16_4, Q14005, sequence (Q14005 1229-1329): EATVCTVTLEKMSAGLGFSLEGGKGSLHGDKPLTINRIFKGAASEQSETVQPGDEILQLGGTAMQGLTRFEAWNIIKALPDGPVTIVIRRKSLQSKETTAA

APBA3_1, O96018 = target: T3, APBA3_1, O96018
T3 sequence (O96018 389-490, limits assumed, looked up): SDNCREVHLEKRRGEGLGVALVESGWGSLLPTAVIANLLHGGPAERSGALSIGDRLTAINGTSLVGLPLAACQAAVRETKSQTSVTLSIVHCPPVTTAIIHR

HTRA3, P83110 = target: T4, HTRA3, P83110
T4 sequence (P83110 354-453, limits assumed, looked up): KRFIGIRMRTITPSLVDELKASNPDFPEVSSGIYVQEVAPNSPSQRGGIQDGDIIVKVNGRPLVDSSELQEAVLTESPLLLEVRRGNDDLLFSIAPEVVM

LRRC7, Q96NW7 = target: T5, LRRC7, Q96NW7
T5 sequence (Q96NW7 1440-1537, limits assumed, looked up): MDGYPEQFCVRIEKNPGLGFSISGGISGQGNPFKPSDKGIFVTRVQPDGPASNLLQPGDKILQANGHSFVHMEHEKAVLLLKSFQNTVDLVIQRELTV

LNX2_3, Q8N448 = target: T6, LNX2_3, Q8N448
T6 sequence (Q8N448 463-564, limits assumed, looked up): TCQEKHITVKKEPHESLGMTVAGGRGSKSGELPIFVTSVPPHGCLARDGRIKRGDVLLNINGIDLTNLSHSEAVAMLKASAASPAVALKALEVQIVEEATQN

ARHGEF11, O15085 = target: T7, ARHGEF11, O15085
T7 sequence (O15085 42-136, limits assumed, looked up): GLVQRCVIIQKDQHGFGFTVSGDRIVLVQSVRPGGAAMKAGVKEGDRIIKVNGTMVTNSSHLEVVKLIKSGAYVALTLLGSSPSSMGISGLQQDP

IL16_1, Q14005 = target: IL16_1, Q14005
IL16_1, Q14005, sequence (Q14005 210-306): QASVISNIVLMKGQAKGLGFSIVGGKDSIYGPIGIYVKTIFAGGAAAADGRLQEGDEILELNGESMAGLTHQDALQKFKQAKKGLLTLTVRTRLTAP

MAGI1_1, Q96QZ7 = target: MAGI1_1, Q96QZ7
MAGI1_1, Q96QZ7, sequence (Q96QZ7 1-106): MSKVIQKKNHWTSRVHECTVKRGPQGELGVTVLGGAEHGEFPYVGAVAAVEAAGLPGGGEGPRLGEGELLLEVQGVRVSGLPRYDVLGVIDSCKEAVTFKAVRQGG

GRIP2_4, Q9C0E4 = target: GRIP2_4, Q9C0E4
GRIP2_4, Q9C0E4, sequence (Q9C0E4 446-548): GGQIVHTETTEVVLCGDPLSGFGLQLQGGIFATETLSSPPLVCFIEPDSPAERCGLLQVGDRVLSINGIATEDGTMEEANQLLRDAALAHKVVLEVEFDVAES

GRID2IP_2, A4D2P6 = target: GRID2IP_2, A4D2P6
GRID2IP_2, A4D2P6, sequence (A4D2P6 272-370): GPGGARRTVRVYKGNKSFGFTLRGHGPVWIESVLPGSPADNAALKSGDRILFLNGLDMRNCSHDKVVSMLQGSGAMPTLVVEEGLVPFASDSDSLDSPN

SCRIB_1, Q14160 = target: SCRIB_1, Q14160
SCRIB_1, Q14160, sequence (Q14160 718-814): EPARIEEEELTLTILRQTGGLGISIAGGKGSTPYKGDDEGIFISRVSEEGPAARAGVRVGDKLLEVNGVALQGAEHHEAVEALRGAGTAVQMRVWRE

TJP2_1, Q9UDY2 = target: TJP2_1, Q9UDY2
TJP2_1, Q9UDY2, sequence (Q9UDY2 24-128): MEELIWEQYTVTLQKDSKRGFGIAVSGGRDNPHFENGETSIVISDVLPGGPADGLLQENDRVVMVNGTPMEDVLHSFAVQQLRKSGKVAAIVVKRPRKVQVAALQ

GRIP2_6, Q9C0E4 = target: GRIP2_6, Q9C0E4
GRIP2_6, Q9C0E4, sequence (Q9C0E4 648-740): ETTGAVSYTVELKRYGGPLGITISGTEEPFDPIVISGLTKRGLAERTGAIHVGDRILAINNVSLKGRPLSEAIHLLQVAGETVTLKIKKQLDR

DLG3_1, Q92796 = target: T8, DLG3_1, Q92796
T8 sequence (Q92796 125-227, limits assumed, looked up): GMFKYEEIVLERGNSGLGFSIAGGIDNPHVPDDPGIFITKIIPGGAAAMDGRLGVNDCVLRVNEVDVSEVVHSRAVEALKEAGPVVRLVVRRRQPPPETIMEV

MAST2, Q6P0Q8 = target: MAST2, Q6P0Q8
MAST2, Q6P0Q8, sequence (Q6P0Q8 1099-1202): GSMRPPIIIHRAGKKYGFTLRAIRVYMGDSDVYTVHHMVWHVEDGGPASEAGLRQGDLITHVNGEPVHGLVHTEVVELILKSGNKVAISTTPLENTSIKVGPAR

FRMPD3, Q5JV73 = target: FRMPD3, Q5JV73
FRMPD3, Q5JV73, sequence (Q5JV73 12-100): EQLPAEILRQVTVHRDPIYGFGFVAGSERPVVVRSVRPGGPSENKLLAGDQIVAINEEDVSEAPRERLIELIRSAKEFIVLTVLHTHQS

GRIP1_4, Q9Y3R0 = target: T9, GRIP1_4, Q9Y3R0
T9 sequence (Q9Y3R0 467-571, limits assumed, looked up): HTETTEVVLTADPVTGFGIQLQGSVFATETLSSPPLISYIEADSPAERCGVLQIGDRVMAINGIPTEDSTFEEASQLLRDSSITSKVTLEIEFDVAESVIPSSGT

SYNJ2BP, P57105 = target: T10, SYNJ2BP, P57105; settings: plain residues with an end cap or a label only (N-terminal biotin on a linker: ttds)
T10 sequence (P57105 8-110, limits assumed, looked up): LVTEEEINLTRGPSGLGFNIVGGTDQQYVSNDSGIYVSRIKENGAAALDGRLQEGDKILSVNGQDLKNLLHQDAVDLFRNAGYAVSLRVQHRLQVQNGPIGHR

SNX27, Q96L92 = settings: plain residues with an end cap or a label only (N-terminal biotin on a linker: ttds)
PARD3_3, Q8TEW0 = settings: plain residues with an end cap or a label only (N-terminal biotin on a linker: ttds)
PARD3_3, Q8TEW0, sequence (Q8TEW0 582-685): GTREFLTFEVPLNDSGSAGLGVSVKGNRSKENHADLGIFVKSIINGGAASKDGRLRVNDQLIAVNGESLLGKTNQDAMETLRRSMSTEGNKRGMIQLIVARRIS

[1] = plain residues with an end cap or a label only (N-terminal biotin on a linker: ahx)
[2] = plain residues with an end cap or a label only (N-terminal biotin on a linker: ttds)

NHERF4_4, Q86UT5, sequence (Q86UT5 464-550): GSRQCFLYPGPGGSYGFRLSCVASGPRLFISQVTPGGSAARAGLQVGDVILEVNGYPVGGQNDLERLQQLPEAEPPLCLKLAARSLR

B1: GRIN1, Q05586;Q05586-2 (peptide)
chain: LSDPSVSTVV
With B1 the pKd (NHERF4_4, Q86UT5; [1]) was “below the threshold”, the pKd (PDZD2_2, O15018; [1]) was 4.44 and the pKd (DFNB31_1, Q9P202; [1]) was “below the threshold”. For the same binder, the pKd (DLG4_2, P78352; [1]) was 4.31, the pKd (MAGI3_2, Q5TCQ9; [1]) was “below the threshold” and the pKd (LNX1_2, Q8TBB1; [1]) was “below the threshold”. For the same binder, the pKd (PTPN3, P26045; [1]) was “below the threshold”, the pKd (IL16_4, Q14005; [1]) was “below the threshold” and the pKd (APBA3_1, O96018; [1]) was “below the threshold”. For the same binder, the pKd (HTRA3, P83110; [1]) was “below the threshold”, the pKd (LRRC7, Q96NW7; [1]) was “below the threshold” and the pKd (LNX2_3, Q8N448; [1]) was “below the threshold”. The pKd (ARHGEF11, O15085; [1]) was 4.01, the pKd (IL16_1, Q14005; [1]) was “below the threshold” and the pKd (MAGI1_1, Q96QZ7; [1]) was “below the threshold”. The pKd (GRIP2_4, Q9C0E4; [1]) was “below the threshold”, the pKd (GRID2IP_2, A4D2P6; [1]) was “below the threshold” and the pKd (SCRIB_1, Q14160; [1]) was “below the threshold”. The pKd (TJP2_1, Q9UDY2; [1]) was “below the threshold”, the pKd (GRIP2_6, Q9C0E4; [1]) was “below the threshold” and the pKd (DLG3_1, Q92796; [1]) was “below the threshold”. For the same binder, the pKd (MAST2, Q6P0Q8; [1]) was 4.25, the pKd (FRMPD3, Q5JV73; [1]) was “below the threshold” and the pKd (GRIP1_4, Q9Y3R0; [1]) was “below the threshold”.

B2: PPP1R13L, Q8WUF5 (peptide)
chain: PRVKPQRSKV
In the case of B2, the pKd (NHERF4_4, Q86UT5; [2]) is reported as “below the threshold”, the pKd (PDZD2_2, O15018; [2]) is reported as 4.01 and the pKd (DFNB31_1, Q9P202; [2]) is reported as “below the threshold”. For the same binder, the pKd (DLG4_2, P78352; [2]) was “below the threshold”, the pKd (MAGI3_2, Q5TCQ9; [2]) was 4.07 and the pKd (LNX1_2, Q8TBB1; [2]) was “below the threshold”. For the same binder, the pKd (PTPN3, P26045; [2]) was “below the threshold”, the pKd (IL16_4, Q14005; [2]) was “below the threshold” and the pKd (APBA3_1, O96018; [2]) was “below the threshold”. For the same binder, the pKd (HTRA3, P83110; [2]) was “below the threshold”, the pKd (LRRC7, Q96NW7; [2]) was “below the threshold” and the pKd (LNX2_3, Q8N448; [2]) was “below the threshold”. The pKd (ARHGEF11, O15085; [2]) was 3.64, the pKd (IL16_1, Q14005; [2]) was “below the threshold” and the pKd (MAGI1_1, Q96QZ7; [2]) was “below the threshold”. The pKd (GRIP2_4, Q9C0E4; [2]) was “below the threshold”, the pKd (SYNJ2BP, P57105) was “below the threshold” and the pKd (GRID2IP_2, A4D2P6; [2]) was 4.51. The pKd (SNX27, Q96L92) was “below the threshold”, the pKd (SCRIB_1, Q14160; [2]) was “below the threshold” and the pKd (TJP2_1, Q9UDY2; [2]) was “below the threshold”. For the same binder, the pKd (GRIP2_6, Q9C0E4; [2]) was “below the threshold”, the pKd (DLG3_1, Q92796; [2]) was “below the threshold” and the pKd (MAST2, Q6P0Q8; [2]) was 3.82. The pKd (FRMPD3, Q5JV73; [2]) was “below the threshold”, the pKd (GRIP1_4, Q9Y3R0; [2]) was “below the threshold” and the pKd (PARD3_3, Q8TEW0) was “below the threshold”.

B3: PLCB4, Q15147 (peptide)
chain: EMDRRPATVV
With B3 the pKd (NHERF4_4, Q86UT5; [2]) was “below the threshold”, the pKd (PDZD2_2, O15018; [2]) was 3.87 and the pKd (DFNB31_1, Q9P202; [2]) was 3.53. The pKd (DLG4_2, P78352; [2]) was 4.25, the pKd (MAGI3_2, Q5TCQ9; [2]) was 4.65 and the pKd (LNX1_2, Q8TBB1; [2]) was 3.67. The pKd (PTPN3, P26045; [2]) was “below the threshold”, the pKd (IL16_4, Q14005; [2]) was “below the threshold” and the pKd (APBA3_1, O96018; [2]) was “below the threshold”. The pKd (HTRA3, P83110; [2]) was “below the threshold”, the pKd (LRRC7, Q96NW7; [2]) was “below the threshold” and the pKd (LNX2_3, Q8N448; [2]) was “below the threshold”. The pKd (ARHGEF11, O15085; [2]) was 4.6, the pKd (IL16_1, Q14005; [2]) was “below the threshold” and the pKd (MAGI1_1, Q96QZ7; [2]) was “below the threshold”. For the same binder, the pKd (GRIP2_4, Q9C0E4; [2]) was “below the threshold”, the pKd (SYNJ2BP, P57105) was 3.7 and the pKd (GRID2IP_2, A4D2P6; [2]) was 3.93. For the same binder, the pKd (SNX27, Q96L92) was “below the threshold”, the pKd (SCRIB_1, Q14160; [2]) was 3.84 and the pKd (TJP2_1, Q9UDY2; [2]) was “below the threshold”. For the same binder, the pKd (GRIP2_6, Q9C0E4; [2]) was 3.67, the pKd (DLG3_1, Q92796; [2]) was “below the threshold” and the pKd (MAST2, Q6P0Q8; [2]) was 3.89. The pKd (FRMPD3, Q5JV73; [2]) was 3.64, the pKd (GRIP1_4, Q9Y3R0; [2]) was “below the threshold” and the pKd (PARD3_3, Q8TEW0) was “below the threshold”.

B4: ARHGEF7, Q14155;Q14155-1 (peptide)
chain: NDPAWDETNL
With B4 the pKd (NHERF4_4, Q86UT5; [2]) was “below the threshold”, the pKd (DFNB31_1, Q9P202; [2]) was 4.07 and the pKd (DLG4_2, P78352; [2]) was “below the threshold”. The pKd (MAGI3_2, Q5TCQ9; [2]) was “below the threshold”, the pKd (LNX1_2, Q8TBB1; [2]) was “below the threshold” and the pKd (PTPN3, P26045; [2]) was 4.44. The pKd (IL16_4, Q14005; [2]) was “below the threshold”, the pKd (APBA3_1, O96018; [2]) was “below the threshold” and the pKd (HTRA3, P83110; [2]) was “below the threshold”. For the same binder, the pKd (LNX2_3, Q8N448; [2]) was “below the threshold”, the pKd (IL16_1, Q14005; [2]) was “below the threshold” and the pKd (MAGI1_1, Q96QZ7; [2]) was “below the threshold”. For the same binder, the pKd (GRIP2_4, Q9C0E4; [2]) was “below the threshold”, the pKd (SNX27, Q96L92) was 5.66 and the pKd (SCRIB_1, Q14160; [2]) was 5.5. For the same binder, the pKd (TJP2_1, Q9UDY2; [2]) was “below the threshold”, the pKd (GRIP2_6, Q9C0E4; [2]) was “below the threshold” and the pKd (DLG3_1, Q92796; [2]) was “below the threshold”. For the same binder, the pKd (MAST2, Q6P0Q8; [2]) was 5.98, the pKd (GRIP1_4, Q9Y3R0; [2]) was “below the threshold” and the pKd (PARD3_3, Q8TEW0) was 4.16.
